Molecular target: venus-labeled Gβγ dimers (venus155–239-Gβ1 with venus1–155-Gγ2) (human, UniProt P62873 1-340; P59768 1-71)
Assay: FRET or BRET

B1: masGRK3ct-Rluc8 (domain or fragment)
chain: MGSSKSKTSNSGIKLLDCDQELYKNFPLVISERWQQEVAETVYEAVNADTDKIEARKRAKNKQLGHEEDYALGRDCIVHGYMLKLGNPFLTQWQRRYFYLFPNRLEWRGEGESRQSLLTMEQIVSVEETQIKDKKCILLRIKGGKQFVLQCESDPEFVQWKKELTETFMEAQRLLRRAPKFLNKSRSAVVELSKPPLCHRNSNGL
modifications: myristoylation directed by the N-terminal mas peptide
adenosine-induced BRET increase (highest relative expression of C-TM-Gα i1): 0.025 ± 0.003
adenosine-induced BRET increase (lowest relative expression of C-TM-Gα i1): 0.05 ± 0.007
